Source: PMC7367873, “Dissecting the sequence determinants for dephosphorylation by the catalytic subunits of phosphatases PP1 and PP2A” (Nature Communications, 2020)

Experiments:
[1] = test system: GFP-14-3-3β and its binding proteins; assay: GFP-14-3-3β co-IP with LC-MS/MS label-free quantification, untreated versus PP1c-treated; design: species or system human; settings: 3 replicates each
GFP-14-3-3β = GFP-14-3-3β co-IP with LC-MS/MS, untreated GFP-14-3-3β versus GFP control (14-3-3 interactome); format: binding, human; settings: 3 replicates each
[2] = log2 difference, pairwise comparison PP1 vs untreated, label-free quantification
[3] = log2 difference, pairwise comparison untreated vs GFP, label-free quantification
[4] = PP1 vs untreated, LFQ intensities
[5] = untreated vs GFP, LFQ intensities

B1: SSR4 (protein, UniProt P51571 24-173, looked up)
Translocon-associated protein …: EACLEPQITPSYYTTSDAVISTETVFIVEISLTCKNRVQNMALYADVGGKQFPVTRGQDVGRYQVSWSLDHKSAHAGTYEVRFFDEESYSLLRKAQRNNEDISIIPPLFTVSVDHRGTWNGPWVSTEVLAAAIGLVIYYLAFSAKSHIQA
- Difference (log2), PP1 vs untreated [1, 2]: 2.257
- Difference (log2), untreated vs GFP (GFP-14-3-3β; [3]): 0.4182

B2: RRBP1 (protein, UniProt Q9P2E9 1-1410, looked up)
Ribosome-binding protein 1: MDIYDTQTLGVVVFGGFMVVSAIGIFLVSTFSMKETSYEEALANQRKEMAKTHHQKVEKKKKEKTVEKKGKTKKKEEKPNGKIPDHDPAPNVTVLLREPVRAPAVAVAPTPVQPPIIVAPVATVPAMPQEKLASSPKDKKKKEKKVAKVEPAVSSVVNSIQVLTSKAAILETAPKEVPMVVVPPVGAKGNTPATGTTQGKKAEGTQNQSKKAEGAPNQGRKAEGTPNQGKKTEGTPNQGKKAEGTPNQGKKAEGTPNQGKKAEGAQNQGKKVDTTPNQGKKVEGAPTQGRKAEGAQNQAKKVEGAQNQGKKAEGAQNQGKKGEGAQNQGKKAEGAQNQGKKAEGAQNQGKKAEGAQNQGKKAEGAQNQGKKAEGAQNQGKKAEGAQNQGKKVEGAQNQGKKAEGAQNQGKKAEGAQNQGKKAEGAQNQGKKAEGAQNQGKKAEGAQNQGKKAEGAQNQGKKAEGAQNQGKKVEGAQNQGKKAEGAQNQGKKAEGAQNQGKKAEGAQNQGQKGEGAQNQGKKTEGAQGKKAERSPNQGKKGEGAPIQGKKADSVANQGTKVEGITNQGKKAEGSPSEGKKAEGSPNQGKKADAAANQGKKTESASVQGRNTDVAQSPEAPKQEAPAKKKSGSKKKGEPGPPDADGPLYLPYKTLVSTVGSMVFNEGEAQRLIEILSEKAGIIQDTWHKATQKGDPVAILKRQLEEKEKLLATEQEDAAVAKSKLRELNKEMAAEKAKAAAGEAKVKKQLVAREQEITAVQARMQASYREHVKEVQQLQGKIRTLQEQLENGPNTQLARLQQENSILRDALNQATSQVESKQNAELAKLRQELSKVSKELVEKSEAVRQDEQQRKALEAKAAAFEKQVLQLQASHRESEEALQKRLDEVSRELCHTQSSHASLRADAEKAQEQQQQMAELHSKLQSSEAEVRSKCEELSGLHGQLQEARAENSQLTERIRSIEALLEAGQARDAQDVQASQAEADQQQTRLKELESQVSGLEKEAIELREAVEQQKVKNNDLREKNWKAMEALATAEQACKEKLLSLTQAKEESEKQLCLIEAQTMEALLALLPELSVLAQQNYTEWLQDLKEKGPTLLKHPPAPAEPSSDLASKLREAEETQSTLQAECDQYRSILAETEGMLRDLQKSVEEEEQVWRAKVGAAEEELQKSRVTVKHLEEIVEKLKGELESSDQVREHTSHLEAELEKHMAAASAECQNYAKEVAGLRQLLLESQSQLDAAKSEAQKQSDELALVRQQLSEMKSHVEDGDIAGAPASSPEAPPAEQDPVQLKTQLEWTEAILEDEQTQRQKLTAEFEEAQTSACRLQEELEKLRTAGPLESSETEEASQLKERLEKEKKLTSDLGRAATRLQELLKTTQEQLAREKDTVKKLQEQLEKAEDGSSSKEGTSV
- Difference (log2), PP1 vs untreated [1, 4]: 0.6577 log2
- Difference (log2), untreated vs GFP (GFP-14-3-3β; [5]): -0.1928 log2

B3: DDX3X;DDX3Y (protein, UniProt O00571 2-662, looked up)
ATP-dependent RNA helicase …: SHVAVENALGLDQQFAGLDLNSSDNQSGGSTASKGRYIPPHLRNREATKGFYDKDSSGWSSSKDKDAYSSFGSRSDSRGKSSFFSDRGSGSRGRFDDRGRSDYDGIGSRGDRSGFGKFERGGNSRWCDKSDEDDWSKPLPPSERLEQELFSGGNTGINFEKYDDIPVEATGNNCPPHIESFSDVEMGEIIMGNIELTRYTRPTPVQKHAIPIIKEKRDLMACAQTGSGKTAAFLLPILSQIYSDGPGEALRAMKENGRYGRRKQYPISLVLAPTRELAVQIYEEARKFSYRSRVRPCVVYGGADIGQQIRDLERGCHLLVATPGRLVDMMERGKIGLDFCKYLVLDEADRMLDMGFEPQIRRIVEQDTMPPKGVRHTMMFSATFPKEIQMLARDFLDEYIFLAVGRVGSTSENITQKVVWVEESDKRSFLLDLLNATGKDSLTLVFVETKKGADSLEDFLYHEGYACTSIHGDRSQRDREEALHQFRSGKSPILVATAVAARGLDISNVKHVINFDLPSDIEEYVHRIGRTGRVGNLGLATSFFNERNINITKDLLDLLVEAKQEVPSWLENMAYEHHYKGSSRGRSKSSRFSGGFGARDYRQSSGASSSSFSSSRASSSRSGGGGHGSSRGFGGGGYGGFYNSDGYGGNYNSQGVDWWGN
modifications: or DDX3Y
- Difference (log2), PP1 vs untreated [1, 4]: 0.6546 log2
- Difference (log2), untreated vs GFP (GFP-14-3-3β; [5]): 0.1796 log2

B4: NOP58 (protein, UniProt Q9Y2X3 1-529, looked up)
Nucleolar protein 58: MLVLFETSVGYAIFKVLNEKKLQEVDSLWKEFETPEKANKIVKLKHFEKFQDTAEALAAFTALMEGKINKQLKKVLKKIVKEAHEPLAVADAKLGGVIKEKLNLSCIHSPVVNELMRGIRSQMDGLIPGVEPREMAAMCLGLAHSLSRYRLKFSADKVDTMIVQAISLLDDLDKELNNYIMRCREWYGWHFPELGKIISDNLTYCKCLQKVGDRKNYASAKLSELLPEEVEAEVKAAAEISMGTEVSEEDICNILHLCTQVIEISEYRTQLYEYLQNRMMAIAPNVTVMVGELVGARLIAHAGSLLNLAKHAASTVQILGAEKALFRALKSRRDTPKYGLIYHASLVGQTSPKHKGKISRMLAAKTVLAIRYDAFGEDSSSAMGVENRAKLEARLRTLEDRGIRKISGTGKALAKTEKYEHKSEVKTYDPSGDSTLPTCSKKRKIEQVDKEDEITEKKAKKAKIKVKVEEEEEEKVAEEEETSVKKKKKRGKKKHIKEEPLSEEEPCTSTAIASPEKKKKKKKKRENED
- Difference (log2), PP1 vs untreated [1, 4]: 0.6296 log2
- Difference (log2), untreated vs GFP (GFP-14-3-3β; [5]): 1.325 log2

B5: BBX (protein, UniProt Q8WY36 1-941, looked up)
HMG box transcription factor …: MKGSNRNKDHSAEGEGVGKRPKRKCLQWHPLLAKKLLDFSEEEEEEDEEEDIDKVQLLGADGLEQDVGETEDDESPEQRARRPMNAFLLFCKRHRSLVRQEHPRLDNRGATKILADWWAVLDPKEKQKYTDMAKEYKDAFMKANPGYKWCPTTNKPVKSPTPTVNPRKKLWAFPSDSSRDLPSPKKAKTEEMPQLNFGMADPTQMGGLSMLLLAGEHALGTPEVSSGTCRPDVSESPELRQKSPLFQFAEISSSTSHSDASTKQCQTSALFQFAEISSNTSQLGGAEPVKRCGKSALFQLAEMCLASEGMKMEESKLIKAKESDGGRIKELEKGKEEKEIKMEKTDETRLQKEAEFEKSAKENLRDSKELRNFEALQIDDIMAIKMEDPKEIRKEELEEDHKCSHFPDFSYSASSKIIISDVPSRKDHMCHPHGIMIIEDPAALNKPEKLKKKKKKSKMDRHGNDKSTPKKTCKKRQSSESDIESVIYTIEAVAKGDWGIEKLGDTPRKKVRTSSSGKGSILDAKPPKKKVKSREKKMSKEKSSDTTKESRPPDFISISASKNISGETPEGIKAEPLTPMEDALPPSLSGQAKPEDSDCHRKIETCGSRKSERSCKGALYKTLVSEGMLTSLRANVDRGKRSSGKGNSSDHEGCWNEESWTFSQSGTSGSKKFKKTKPKEDCLLGSAKLDEEFEKKFNSLPQYSPVTFDRKCVPVPRKKKKTGNVSSEPTKTSKGPFQSQKKNLFHKIVSKYKHKKEKPNVPEKGSGDKWSNKQLFLDAIHPTEAIFSEDRNTMEPVHKVKNIPSIFNTPEPTTTQEPLVGSQKRKARKTKITHLVRTADGRVSPAGGTLDDKPKEQLQRSLPKATETDCNDKCSHNTEVGETRSSTPEMPAVSAFFSLAALAEVAAMENVHRGQRSTPLTHDGQPKEMPQAPVLISCADQ
- Difference (log2), PP1 vs untreated [1, 4]: 0.6283 log2
- Difference (log2), untreated vs GFP (GFP-14-3-3β; [5]): 0.1239 log2

B6: DDX20 (protein, UniProt Q9UHI6 1-824, looked up)
Probable ATP-dependent RNA …: MAAAFEASGALAAVATAMPAEHVAVQVPAPEPTPGPVRILRTAQDLSSPRTRTGDVLLAEPADFESLLLSRPVLEGLRAAGFERPSPVQLKAIPLGRCGLDLIVQAKSGTGKTCVFSTIALDSLVLENLSTQILILAPTREIAVQIHSVITAIGIKMEGLECHVFIGGTPLSQDKTRLKKCHIAVGSPGRIKQLIELDYLNPGSIRLFILDEADKLLEEGSFQEQINWIYSSLPASKQMLAVSATYPEFLANALTKYMRDPTFVRLNSSDPSLIGLKQYYKVVNSYPLAHKVFEEKTQHLQELFSRIPFNQALVFSNLHSRAQHLADILSSKGFPAECISGNMNQNQRLDAMAKLKHFHCRVLISTDLTSRGIDAEKVNLVVNLDVPLDWETYMHRIGRAGRFGTLGLTVTYCCRGEEENMMMRIAQKCNINLLPLPDPIPSGLMEECVDWDVEVKAAVHTYGIASVPNQPLKKQIQKIERTLQIQKAHGDHMASSRNNSVSGLSVKSKNNTKQKLPVKSHSECGIIEKATSPKELGCDRQSEEQMKNSVQTPVENSTNSQHQVKEALPVSLPQIPCLSSFKIHQPYTLTFAELVEDYEHYIKEGLEKPVEIIRHYTGPGDQTVNPQNGFVRNKVIEQRVPVLASSSQSGDSESDSDSYSSRTSSQSKGNKSYLEGSSDNQLKDSESTPVDDRISLEQPPNGSDTPNPEKYQESPGIQMKTRLKEGASQRAKQSRRNLPRRSSFRLQTEAQEDDWYDCHREIRLSFSDTYQDYEEYWRAYYRAWQEYYAAASHSYYWNAQRHPSWMAAYHMNTIYLQEMMHSNQ
- Difference (log2), PP1 vs untreated [1, 2]: 2.218
- Difference (log2), untreated vs GFP (GFP-14-3-3β; [3]): -0.1781

B7: MMS19 (protein, UniProt Q96T76 2-1030, looked up)
MMS19 nucleotide excision …: AAAAAVEAAAPMGALWGLVHDFVVGQQEGPADQVAADVKSGNYTVLQVVEALGSSLENPEPRTRARAIQLLSQVLLHCHTLLLEKEVVHLILFYENRLKDHHLVIPSVLQGLKALSLCVALPPGLAVSVLKAIFQEVHVQSLPQVDRHTVYNIITNFMRTREEELKSLGADFTFGFIQVMDGEKDPRNLLVAFRIVHDLISRDYSLGPFVEELFEVTSCYFPIDFTPPPNDPHGIQREDLILSLRAVLASTPRFAEFLLPLLIEKVDSEVLSAKLDSLQTLNACCAVYGQKELKDFLPSLWASIRREVFQTASERVEAEGLAALHSLTACLSRSVLRADAEDLLDSFLSNILQDCRHHLCEPDMKLVWPSAKLLQAAAGASARACDSVTSNVLPLLLEQFHKHSQSSQRRTILEMLLGFLKLQQKWSYEDKDQRPLNGFKDQLCSLVFMALTDPSTQLQLVGIRTLTVLGAQPDLLSYEDLELAVGHLYRLSFLKEDSQSCRVAALEASGTLAALYPVAFSSHLVPKLAEELRVGESNLTNGDEPTQCSRHLCCLQALSAVSTHPSIVKETLPLLLQHLWQVNRGNMVAQSSDVIAVCQSLRQMAEKCQQDPESCWYFHQTAIPCLLALAVQASMPEKEPSVLRKVLLEDEVLAAMVSVIGTATTHLSPELAAQSVTHIVPLFLDGNVSFLPENSFPSRFQPFQDGSSGQRRLIALLMAFVCSLPRNVEIPQLNQLMRELLELSCCHSCPFSSTAAAKCFAGLLNKHPAGQQLDEFLQLAVDKVEAGLGSGPCRSQAFTLLLWVTKALVLRYHPLSSCLTARLMGLLSDPELGPAAADGFSLLMSDCTDVLTRAGHAEVRIMFRQRFFTDNVPALVQGFHAAPQDVKPNYLKGLSHVLNRLPKPVLLPELPTLLSLLLEALSCPDCVVQLSTLSCLQPLLLEAPQVMSLHVDTLVTKFLNLSSSPSMAVRIAALQCMHALTRLPTPVLLPYKPQVIRALAKPLDDKKRLVRKEAVSARGEWFLLGSPGS
- Difference (log2), PP1 vs untreated [1, 4]: 0.6094 log2
- Difference (log2), untreated vs GFP (GFP-14-3-3β; [5]): 1.425 log2
